According to the supplement of paper PMC10724198:
± gives the standard deviation of the averaged measurements.

These sequences were tested on Saccharomyces cerevisiae (assay: protein stability index of tFT-peptide fusion (C-terminal peptide) (PSI (0-1 scale)); higher = more stable (slower turnover)). Details: genetic background: wild type; temperature: 30 C.
Procedure: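 Multiplexed protein stability (MPS) profiling in S. cerevisiae. Random 12-aa peptides (tFT-X12 library) are fused to the C-terminus of a sfGFP-mCherry tandem fluorescent timer, after mCherry and a GGGS linker. Cells are FACS-sorted into 8 mCherry/sfGFP bins and deep-sequenced. The protein stability index (PSI) is the read-weighted bin average, scaled from 0 (unstable) to 1 (stable). Only peptides with >10 reads are reported; cells were grown at 30 °C in SC-His with glucose.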
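Further: PSI is a weighted mean of sequencing reads over stability bins, variants kept only with over 10 reads, mCherry proximal and sfGFP distal, peptide attached via GGGS linker.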

In order of rising protein stability index:
1. LVCGIGFIYFGF  0.492 ± 0.014
2. VVYFGVVVEGQV  0.514 ± 0.032
3. FFLPSLFSVLSF  0.53 ± 0.04
4. CGSGWDRSVGIG  0.531 ± 0.027
5. LPPSPPLSPITS  0.55 ± 0.024
6. QGERHCCILVST  0.555 ± 0.025
7. VFLSCPCLFFWV  0.56 ± 0.022
8. GLACSRYVLFWK  0.562 ± 0.023
9. RKYEKEKYKKMI  0.566 ± 0.013
10. YAVIRILCSSRR  0.5725 ± 0.0039
11. SRVLLPPQTLLL  0.573 ± 0.035
12. ESGGGGGGGRER  0.5726 ± 0.0016
13. GYRNIEYGFGSG  0.575 ± 0.061
14. ICRGGLWGVCVG  0.581 ± 0.0097
15. SVWCRRRRVTNS  0.5825 ± 0.0054
16. APLLQCPILARP  0.588 ± 0.0067
17. NVEFVVERIREK  0.6 ± 0.027
18. VSKYNGIKRRNG  0.6 ± 0.0085
19. CGWCCVVCSCLV  0.602 ± 0.06
20. VRPQLGNHRILV  0.609 ± 0.0067
21. VLSLLVLLLSLP  0.614 ± 0.017
22. LLESFCVSWCSW  0.617 ± 0.012
23. SDSPSAPPSAYH  0.62 ± 0.058
24. DNARCKSPRSLN  0.621 ± 0.092
25. EVCFVWSLGEVL  0.623 ± 0.019
26. KNIRKITHGIGN  0.623 ± 0.072
27. PSPPPPPSPSPP  0.626 ± 0.014
28. HLSCVSVSVRGS  0.629 ± 0.015
29. PLLLYFLPPLPL  0.629 ± 0.039
30. RRRPPPLPPPHL  0.63 ± 0.015
31. VDLYVRRVGVGG  0.631 ± 0.037
32. PLPLPSTALPPS  0.632 ± 0.063
33. IKSQRGIHLELR  0.634 ± 0.028
34. WGWSGGEDCLEG  0.64 ± 0.0073
35. APPPSPPALVLP  0.641 ± 0.026
36. TRYIRKSKTKGA  0.643 ± 0.014
37. RLGDALCFSFTV  0.644 ± 0.032
38. EVCAGDDIRYLV  0.645 ± 0.026
39. LFSPPTFFLFHR  0.6445 ± 0.0046
40. SVNHVDIANSIL  0.647 ± 0.011
41. DNWHRSFSTYPV  0.647 ± 0.099
42. LLPVFSYVPTFH  0.648 ± 0.047
43. HLSNSCLHGVSG  0.6484 ± 0.00096
44. RKKPRKLRETDN  0.649 ± 0.053
45. KQKKKRKSRRKK  0.6504 ± 0.0033
46. GGVRRRSAVGVR  0.65129 ± 0.00017
47. TLPPPSLPPSSS  0.652 ± 0.071
48. TQRTSRDPLRAP  0.652 ± 0.016
49. SFLSLYRLTPGR  0.655 ± 0.048
50. WGSGGGRDGCGV  0.655 ± 0.083
51. ITSALRYLSAVG  0.656 ± 0.022
52. TPRLVFFLPLLP  0.658 ± 0.029
53. VPVIGRSCPFLP  0.6581 ± 0.0013
54. SGVLASSCPSSC  0.659 ± 0.016
55. PPLPPSSPPPSS  0.6605 ± 0.0028
56. LVSWFWPFSFFA  0.661 ± 0.098
57. VRNKGVAKDHCP  0.661 ± 0.064
58. EGDACCGVDGKR  0.663 ± 0.13
59. SSLGLFISTASV  0.664 ± 0.042
60. TGRNIGRVKIYL  0.665 ± 0.049
61. PPSPPPPALSSS  0.665 ± 0.056
62. ISMSDFRLFAIW  0.6646 ± 0.0047
63. PLRDHPAPPHRL  0.665 ± 0.068
64. YPDYTSATGNIR  0.666 ± 0.016
65. QTYQQSVKNRDD  0.666 ± 0.061
66. PSTLKQVMNLGA  0.666 ± 0.18
67. EGTKEKGEKRRR  0.666 ± 0.065
68. VKGCKCGRIASY  0.669 ± 0.063
69. FPPCSFLARPFL  0.669 ± 0.019
70. GCRELVRCVMLG  0.669 ± 0.083
71. SPILRFPPPCFL  0.67 ± 0.019
72. VWRRCVPGPASP  0.67 ± 0.0097
73. SFPRYRWRAATE  0.6704 ± 0.0021
74. HSHAGIGPVVTR  0.672 ± 0.0077
75. SFGSVFGGRWCV  0.672 ± 0.035
76. VSRGESEVKAGG  0.673 ± 0.1
77. DTNRALMRKSHS  0.673 ± 0.0088
78. WGGGGGGDCVGA  0.6732 ± 0.0029
79. NNRKKKGRRRQE  0.674 ± 0.042
80. RPAPSRTYLNLI  0.674 ± 0.026
81. GITCAEGAAMKR  0.676 ± 0.022
82. RDSKDMTWISTS  0.6755 ± 0.0024
83. PSPPPPPPPGSF  0.677 ± 0.06
84. RGWWVRGGVLWC  0.677 ± 0.048
85. PPNLLPPLSPSL  0.678 ± 0.08
86. WYVALGRFVGGS  0.678 ± 0.049
87. KKNNKKNNKKKQ  0.678 ± 0.078
88. KKMKKASTAKEL  0.678 ± 0.025
89. PRPPLPSLHLSP  0.679 ± 0.024
90. ENVGRASDHSLS  0.679 ± 0.097
91. DKLSSRIPCSPS  0.679 ± 0.0077
92. KYKVGLWHRVAK  0.68 ± 0.16
93. SQLEPNNVQVTT  0.68 ± 0.0069
94. SRFDAGYRGTIT  0.68 ± 0.034
95. ILNKYYEQSMRT  0.68 ± 0.011
96. ASIPAPRLTPRA  0.681 ± 0.048
97. FRRSLILPLPPT  0.6814 ± 0.0037
98. GGGKINSLHGAG  0.681 ± 0.041
99. PVFGRPFCSSSV  0.682 ± 0.061
100. KNEKNERKIATQ  0.682 ± 0.016
101. RVGQINKFLPLE  0.682 ± 0.071
102. CRTTDFQCTIGN  0.683 ± 0.0087
103. VQNPVTTPQEQF  0.684 ± 0.043
104. VTLWGFFRVLSL  0.686 ± 0.043
105. SSLIGHTLRPLV  0.686 ± 0.022
106. RCAIMGRGGIVT  0.686 ± 0.018
107. SGKVNNKEGKWK  0.686 ± 0.015
108. ILHGRSGLRELL  0.688 ± 0.023
109. LGPLILDGATDC  0.688 ± 0.11
110. FSRPPPFPLFSS  0.69 ± 0.03
111. YISEKKKIEERK  0.69 ± 0.032
112. LPPPAAPPPALA  0.691 ± 0.032
113. QQQSTKHSEERV  0.691 ± 0.014
114. LPTSTRRGGSHG  0.6911 ± 0.0055
115. GREGGEQRKEGK  0.692 ± 0.029
116. KRKKQERKREKK  0.692 ± 0.05
117. QSNPAERASSRL  0.692 ± 0.022
118. PPAPRPPSPRPP  0.693 ± 0.033
119. VSIAYARHGDSV  0.693 ± 0.028
120. VSGPTPAPLSSL  0.695 ± 0.028
121. RDLLYHNCRNMI  0.695 ± 0.027
122. CGVGWGMGEGWR  0.6956 ± 0.00081
123. WPLLLHLLHLLR  0.697 ± 0.12
124. PPPPHRSHLPHS  0.697 ± 0.03
125. PPATTSATRVRP  0.698 ± 0.043
126. PPCLPPASRPVL  0.699 ± 0.0069
127. SLSPLPSPPPPP  0.7 ± 0.0087
128. GPSRTPRHPSPP  0.701 ± 0.053
129. NENFILCPRVNL  0.701 ± 0.035
130. VSHKETNKIKPN  0.701 ± 0.097
131. INNTKQSENRKS  0.701 ± 0.054
132. RSGQEKEKWEER  0.701 ± 0.022
133. EVGGSVGTIVGS  0.702 ± 0.11
134. IWLHFKGSRSLP  0.703 ± 0.16
135. TRFLWYFVPTTK  0.704 ± 0.071
136. RWIWTRESTFSN  0.705 ± 0.016
137. CFLLSSFSLPRS  0.705 ± 0.0078
138. NSKTKNCYKTGS  0.705 ± 0.061
139. LPRSASLHVRPH  0.707 ± 0.023
140. YFLPLLCRSPSL  0.707 ± 0.0095
141. EDKVHQSSACHQ  0.707 ± 0.03
142. YPTSLLHLHSPP  0.708 ± 0.044
143. RVESRFSGTDSF  0.708 ± 0.041
144. SVSSSVGRGLRV  0.711 ± 0.014
145. KGRRQPSSESVM  0.711 ± 0.014
146. YLPRREAALRRV  0.7118 ± 0.0034
147. KQTEKEPKKGES  0.7123 ± 0.0028
148. FRHPGSAGPPVA  0.713 ± 0.011
149. KKKGDAKNKKKQ  0.714 ± 0.067
150. PPSPHPSASTRP  0.714 ± 0.04
151. PVPSPLLPSFSL  0.715 ± 0.064
152. FRAPYWCSRVFG  0.715 ± 0.095
153. PRLIESYRPITS  0.715 ± 0.09
154. LAPALSHSPPLT  0.715 ± 0.078
155. EVVRWGCVDLWI  0.717 ± 0.051
156. RFPPPPPPPPLL  0.718 ± 0.078
157. KEQESKAISYPV  0.718 ± 0.035
158. VGFSAFSDSFFV  0.7224 ± 0.0046
159. CRGGRHFSREKF  0.723 ± 0.036
160. PILPTSAPSDPR  0.724 ± 0.12
161. NHSTGLYAARLR  0.725 ± 0.041
162. NKQTKTQPTKKE  0.725 ± 0.015
163. KCCRRPPPAFRS  0.725 ± 0.034
164. PRPPSSSPHPHP  0.727 ± 0.095
165. GGVVEGVSLAQC  0.727 ± 0.049
166. GLVWGGGGTVGG  0.73 ± 0.12
167. HHHPGQKCKIKG  0.731 ± 0.016
168. PAVFPSLENVAL  0.732 ± 0.046
169. SRIGNADAAQGM  0.732 ± 0.042
170. HEDIPGSTYTIN  0.734 ± 0.033
171. KNESIRKKKPKK  0.734 ± 0.033
172. LFSSLNLFSSRD  0.7355 ± 0.0033
173. TIETKVNSKDDS  0.735 ± 0.031
174. PYPPPPRLLVSP  0.7359 ± 0.0056
175. AGAWVRVVVGWG  0.737 ± 0.012
176. AIPLPVLSFPPL  0.737 ± 0.024
177. SELEADKRIKRK  0.739 ± 0.094
178. PLSVSLSLLTPR  0.74 ± 0.13
179. IERCGIVKEVKG  0.74 ± 0.012
180. WFPNQCFENEIP  0.742 ± 0.054
181. GAKHDSSRQSLR  0.746 ± 0.086
182. PQPEAPSRPQLA  0.746 ± 0.065
183. GVGAPGARGVWG  0.748 ± 0.048
184. KQNAHKKINKYE  0.75 ± 0.02
185. VMKILQVGDVYN  0.752 ± 0.021
186. WWHVLLGGCGCW  0.753 ± 0.013
187. FWEHFVLSVRPE  0.758 ± 0.076
188. SRPSPPPRRPLG  0.759 ± 0.067
189. PFSPLVPPLSFS  0.76 ± 0.086
190. VTGGGVGHWGWW  0.761 ± 0.052
191. HVSSKMEWGNRD  0.763 ± 0.066
192. STGDWKLKFSKF  0.765 ± 0.066
193. WPYDRHTRHRET  0.767 ± 0.092
194. RKLNEKTRYKRR  0.7788 ± 0.003
195. VCARSVLFFWAA  0.782 ± 0.25
196. TPPFPPSPFLTL  0.783 ± 0.039
